Data as given in US20210171630A1 (MacroGenics, published 2021).

Tests used:
[1] = target: T1, human CD16B of neutrophils (human, UniProt O75015 17-200); assay: flow cytometry, whole blood of donor D48353, gated granulocyte population (CD66b PerCP Cy5.5): αhFc APC (% positive)
T1 construct: whole, on cells; also called CD16B-expressing cells of the gated granulocyte population

[2] = target: T2, Human CD16A 158F (labeled with Avitag) (human, UniProt P08637 17-208); assay: SPR (BIACORE); diabody captured on goat F(ab')2 anti-human Fc, CD16A-Avitag passed over; 1:1 fit
T2 construct: also called human CD16A V/F molecules; not shown: Avitag
T2 sequence (P08637 17-208 limits assumed): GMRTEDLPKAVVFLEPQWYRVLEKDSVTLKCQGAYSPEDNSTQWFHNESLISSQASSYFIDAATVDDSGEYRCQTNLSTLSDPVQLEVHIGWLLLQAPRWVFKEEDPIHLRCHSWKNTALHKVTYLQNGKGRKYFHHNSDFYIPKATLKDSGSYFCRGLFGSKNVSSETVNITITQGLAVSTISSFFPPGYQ

[3] = target: T3, Human CD16A 158V (labeled with Avitag) (human, UniProt P08637 17-208); assay: as above
T3 construct: also called human CD16A V/F molecules; CD16 158V allotype; not shown: Avitag
T3 sequence (P08637 17-208 F176V limits assumed): as the sequence (P08637 17-208 limits assumed) above, with F160V counted along it

[4] = target: T4, human CD16A on the surface of NK cells (human, UniProt P08637 17-254); assay: flow cytometry, whole blood of donor D48353, gated lymphocyte population: αhFc APC (% positive)
T4 construct: whole, on cells; also called CD16A-expressing cells of the gated lymphocyte population; human CD16 on NK cells
T4 sequence (P08637 17-254): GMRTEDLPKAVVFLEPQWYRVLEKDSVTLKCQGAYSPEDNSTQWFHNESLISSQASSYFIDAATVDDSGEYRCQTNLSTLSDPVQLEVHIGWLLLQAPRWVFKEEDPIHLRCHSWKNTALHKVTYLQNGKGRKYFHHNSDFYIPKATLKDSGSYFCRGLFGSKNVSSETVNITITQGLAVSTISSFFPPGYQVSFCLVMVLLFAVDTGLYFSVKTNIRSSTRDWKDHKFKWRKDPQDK

[5] = target: T4, human CD16A on the surface of NK cells; assay: flow cytometry, whole blood of donor D59780, NK cells: CD56 APC / αhFc PE double-positive cells (%)
Description: Following incubation, the cells were labled with: anti-CD56-allophycocyanin (CD56 APC, NK cell marker), anti-CD66b-fluorescein isothiocyanate (CD66b FITC, neutrophil cell marker) and anti-CD3-peridinin chlorophyll protein-Cy5.5 (CD3 PerCP Cy5.5, T-cell marker), and anti-humanFc-Phycoerythrin (αhFc PE) to detect diabody binding and the cell surface. The labeled cells were analyzed by flow cytometry gated on NK cells.

[6] = target: T5, Human CD16A 158V, His tagged (R&D Systems) (human, UniProt P08637 17-208); assay: SPR (ProteOn); CD16-His immobilized via anti-PentaHis, diabody passed over
T5 construct: Bought (R&D Systems); also called CD16-His tagged molecules; not shown: His tag
T5 sequence (P08637 17-208 F176V limits assumed): as the sequence (P08637 17-208 limits assumed) above, with F160V counted along it
Description: (§1) A ProteOn analysis was conducted to assess the binding of the CD16 Binding Domains of the constructed diabodies to CD16-His tagged molecules (R&D Systems) that had been immobilized on a chip. The CD16 molecules were immobilized via an anti-PentaHis antibody, followed by incubation incubation with the diabodies.

[7] = target: T6, Human CD16A V158F, His tagged (R&D Systems) (human, UniProt P08637 17-208); assay: as above
T6 construct: Bought (R&D Systems); also called CD16-His tagged molecules; not shown: His tag
T6 sequence (P08637 17-208 limits assumed, stated change not applied): as the sequence (P08637 17-208 limits assumed) above
Description: as §1

[8] = target: T7, Human CD16B, His tagged (R&D Systems) (human, UniProt O75015 17-200); assay: as above
T7 construct: Bought (R&D Systems); also called CD16-His tagged molecules; not shown: His tag
T7 sequence (O75015 17-200 limits assumed): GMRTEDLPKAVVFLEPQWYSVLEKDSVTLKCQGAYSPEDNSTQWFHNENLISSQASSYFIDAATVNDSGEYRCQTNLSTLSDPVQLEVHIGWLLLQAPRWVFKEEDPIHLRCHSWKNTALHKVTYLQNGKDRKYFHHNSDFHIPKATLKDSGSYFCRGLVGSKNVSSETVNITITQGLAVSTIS
Description: as §1

[9] = target: T1, human CD16B of neutrophils; assay: flow cytometry, whole blood of donor D59780, neutrophils: CD66b FITC / αhFc PE double-positive cells (%)

T1 sequence (O75015 17-200): as the sequence (O75015 17-200 limits assumed) above

B1: DART-G (bispecific antibody)
chain 1: QSALTQPPSASGSPGQSVTISCTGTSSDVGGYNYVSWYQHHPGKAPKLIISEVNNRPSGVPDRFSGSKSGNTASLTVSGLQAEDEAEYYCSSYTDIHNFVFGGGTKLTVLGGGSGGGGQVQLVQSGAEVKKPGASVKVSCKASGYTFTSSAMHWVRQAPGQGLEWMGYINHYNDGIKYNERFKGRVTITADKSTSTAYMELSSLRSEDTAVYYCATGYRYASWFASWGQGTLVTVSSASTKGEVAACEKEVAALEKEVAALEKEVAALEKGGGDKTHTCPPCPAPEAAGGPSVFLFPPKPKDTLMISRTPEVTCVVVDVSHEDPEVKFNWYVDGVEVHNAKTKPREEQYNSTYRVVSVLTVLHQDWLNGKEYKCKVSNKALPAPIEKTISKAKGQPREPQVYTLPPSREEMTKNQVSLWCLVKGFYPSDIAVEWESNGQPENNYKTTPPVLDSDGSFFLYSKLTVDKSRWQQGNVFSCSVMHEALHNHYTQKSLSLSPGK
chain 2: EIVLTQSPATLSVSPGERATLSCRASQNIGTSIHWYQQKPDQSPKLLIKSVSESISGVPSRFSGSGSGTDFTLTINSLEAEDFATYYCQQSNSWPLTFGQGTKLEIKGGGSGGGGQVQLQESGPGLVKPSQTLSLSCTVSGGSSSSGAHYWSWIRQYPGKGLEWIGYIHYSGNTYYNPSLKSRITISQHTSENQFSLKLNSVTVADTAVYYCARGTRLRTLRNAFDIWGQGTLVTVSSASTKGKVAACKEKVAALKEKVAALKEKVAALKE
chain 3: not shown
notes: Three-chain diabody; hCD16-M2 (VH1) x A32; also called DART-G (hCD16-M2)
Question: With B1 as the binder, how does the “EC50 (read off the curve)” value [1] read?
Answer: Its value is about 0.2 µg/mL.

Question: What about the Kd [2] of the same binder?
Answer: The Kd was 2.6 nM.

Question: And the Kd [3]?
Answer: The Kd was 2.2 nM.

Question: And the “EC50 (read off the curve)” value [4]?
Answer: The value was about 0.03 µg/mL.

Question: And the “EC50 (read off the curve)” value [5]?
Answer: The value was about 0.008 µg/mL.

Question: And the Kd [6]?
Answer: Its Kd is 0.8 nM.

Question: And the Kd [7]?
Answer: Its Kd is 1.9 nM.

Question: What about the Kd [8] of the same binder?
Answer: The Kd was 2.6 nM.

Question: What about the “EC50 (read off the curve)” value [9] of the same binder?
Answer: The value was about 0.1 µg/mL.

B2: DART-F (bispecific antibody)
chain 1: QSALTQPPSASGSPGQSVTISCTGTSSDVGGYNYVSWYQHHPGKAPKLIISEVNNRPSGVPDRFSGSKSGNTASLTVSGLQAEDEAEYYCSSYTDIHNFVFGGGTKLTVLGGGSGGGGEVQLVESGGGLVKPGGSLRLSCAASGFTFSNYGMSWVRQAPGKGLEWVATISGGGSYTFYPDSVKGRFTISRDNAKNSLYLQMNSLRTEDTALYYCVRQSARAPEPYWGQGTLVTVSSASTKGEVAACEKEVAALEKEVAALEKEVAALEKGGGDKTHTCPPCPAPEAAGGPSVFLFPPKPKDTLMISRTPEVTCVVVDVSHEDPEVKFNWYVDGVEVHNAKTKPREEQYNSTYRVVSVLTVLHQDWLNGKEYKCKVSNKALPAPIEKTISKAKGQPREPQVYTLPPSREEMTKNQVSLWCLVKGFYPSDIAVEWESNGQPENNYKTTPPVLDSDGSFFLYSKLTVDKSRWQQGNVFSCSVMHEALHNHYTQKSLSLSPGK
chain 2: DIQMTQSPSFLSASVGDRVTITCRASQNVGTHVAWYQQKPGKAPKSLLYSASYRYSGVPSRFSGSGSGTDFTLTISSLQSEDIATYYCQQYKSYPLTFGQGTKLEIKGGGSGGGGQVQLQESGPGLVKPSQTLSLSCTVSGGSSSSGAHYWSWIRQYPGKGLEWIGYIHYSGNTYYNPSLKSRITISQHTSENQFSLKLNSVTVADTAVYYCARGTRLRTLRNAFDIWGQGTLVTVSSASTKGKVAACKEKVAALKEKVAALKEKVAALKE
chain 3: not shown
notes: Three-chain diabody; hCD16-M1 x A32; also called DART-F (hCD16-M1)
Question: Which Kd [2] does the source give for B2 here?
Answer: The Kd was 0.2 nM.

Question: And the Kd [3]?
Answer: Its Kd is 0.3 nM.

Question: What about the “EC50 (read off the curve)” value [4] of the same binder?
Answer: The value was about 0.003 µg/mL.

Question: What about the “EC50 (read off the curve)” value [5] of the same binder?
Answer: Its value is about 0.0002 µg/mL.

Question: What about the Kd [6] of the same binder?
Answer: The Kd was 0.1 nM.

Question: And the Kd [7]?
Answer: The Kd was 0.1 nM.

Question: What about the Kd [8] of the same binder?
Answer: Its Kd is 0.4 nM.

B3: DART-4 (bispecific antibody)
chain 1: DIVMTQSPDSLAVSPGERATIHCKSSQTLLYSSNNRHSIAWYQQRPGQPPKLLLYWASMRLSGVPDRFSGSGSGTDFTLTINNLQAEDVAIYYCHQYSSHPPTFGHGTRVEIKGGGSGGGGQVTLRESGPALVKPTQTLTLTCTFSGFSLSTSGMGVGWIRQPPGKALEWLAHIWWDDDKRYNPALKSRLTISKDTSKNQVVLTMTNMDPVDTATYYCAQINPAWFAYWGQGTLVTVSSASTKGEVAACEKEVAALEKEVAALEKEVAALEKGGGDKTHTCPPCPAPEAAGGPSVFLFPPKPKDTLMISRTPEVTCVVVDVSHEDPEVKFNWYVDGVEVHNAKTKPREEQYNSTYRVVSVLTVLHQDWLNGKEYKCKVSNKALPAPIEKTISKAKGQPREPQVYTLPPSREEMTKNQVSLWCLVKGFYPSDIAVEWESNGQPENNYKTTPPVLDSDGSFFLYSKLTVDKSRWQQGNVFSCSVMHEALHNHYTQKSLSLSPGK
chain 2: DIVMTQSPDSLAVSLGERATINCKASQSVDFDGDSFMNWYQQKPGQPPKLLIYTTSNLESGVPDRFSGSGSGTDFTLTISSLQAEDVAVYYCQQSNEDPYTFGQGTKLEIKGGGSGGGGQVQLVQSGGGVFKPGGSLRLSCEASGFTFTEYYMTWVRQAPGKGLEWLAYISKNGEYSKYSPSSNGRFTISRDNAKNSVFLQLDRLSADDTAVYYCARADGLTYFSELLQYIFDLWGQGARVTVSSASTKGKVAACKEKVAALKEKVAALKEKVAALKE
chain 3: not shown
Question: Which results are given for B3?
Answer: Kd [6]: 23.3 nM; kon [6]: 290000 M⁻¹ s⁻¹; Kd [7]: 76.8 nM; Kd [8]: 7.8 nM

B4: DART-Z (bispecific antibody)
chain 1: QSALTQPPSASGSPGQSVTISCTGTSSDVGGYNYVSWYQHHPGKAPKLIISEVNNRPSGVPDRFSGSKSGNTASLTVSGLQAEDEAEYYCSSYTDIHNFVFGGGTKLTVLGGGSGGGGEEVQLVQSGAEVKKPGESLKVSCKASGYTFTSYYMHWVRQAPGQGLEWMGIINPSGGSTSYAQKFQGRVTMTRDTSTSTVYMELSSLRSEDTAVYYCARGSAYYYDFADYWGQGTLVTVSSASTKGEVAACEKEVAALEKEVAALEKEVAALEK
chain 2: QPVLTQPSSVSVAPGQTATISCGGHNIGSKNVHWYQQRPGQSPVLVIYQDNKRPSGIPERFSGSNSGNTATLTISGTQAMDEADYYCQVWDNYSVLFGGGTKLTVLGGGSGGGGQVQLQESGPGLVKPSQTLSLSCTVSGGSSSSGAHYWSWIRQYPGKGLEWIGYIHYSGNTYYNPSLKSRITISQHTSENQFSLKLNSVTVADTAVYYCARGTRLRTLRNAFDIWGQGTLVTVSSASTKGKVAACKEKVAALKEKVAALKEKVAALKE
notes: also called 4-LS21
Question: What does the source list for B4?
Answer: Kd [6]: 15.7 nM; Kd [7]: 15.2 nM

B5: DART-H (bispecific antibody)
chain 1: DIVMTQSPDSLAVSPGERATIHCKSSQTLLYSSNNRHSIAWYQQRPGQPPKLLLYWASMRLSGVPDRFSGSGSGTDFTLTINNLQAEDVAIYYCHQYSSHPPTFGHGTRVEIKGGGSGGGGEVQLVESGGGLVKPGGSLRLSCAASGFTFSNYGMSWVRQAPGKGLEWVATISGGGSYTFYPDSVKGRFTISRDNAKNSLYLQMNSLRTEDTALYYCVRQSARAPEPYWGQGTLVTVSSASTKGEVAACEKEVAALEKEVAALEKEVAALEKGGGDKTHTCPPCPAPEAAGGPSVFLFPPKPKDTLMISRTPEVTCVVVDVSHEDPEVKFNWYVDGVEVHNAKTKPREEQYNSTYRVVSVLTVLHQDWLNGKEYKCKVSNKALPAPIEKTISKAKGQPREPQVYTLPPSREEMTKNQVSLWCLVKGFYPSDIAVEWESNGQPENNYKTTPPVLDSDGSFFLYSKLTVDKSRWQQGNVFSCSVMHEALHNHYTQKSLSLSPGK
chain 2: DIQMTQSPSFLSASVGDRVTITCRASQNVGTHVAWYQQKPGKAPKSLLYSASYRYSGVPSRFSGSGSGTDFTLTISSLQSEDIATYYCQQYKSYPLTFGQGTKLEIKGGGSGGGGQVQLVQSGGGVFKPGGSLRLSCEASGFTFTEYYMTWVRQAPGKGLEWLAYISKNGEYSKYSPSSNGRFTISRDNAKNSVFLQLDRLSADDTAVYYCARADGLTYFSELLQYIFDLWGQGARVTVSSASTKGKVAACKEKVAALKEKVAALKEKVAALKE
chain 3: not shown
notes: Three-chain diabody; hCD16-M1 x 7B2
Question: What does the source list for B5?
Answer: Kd [6]: 0.1 nM; Kd [7]: 0.04 nM; Kd [8]: 0.4 nM
